B1: Tripartite motif-containing protein 44, residues 174 to 218; numbered along this chain, Q96DX7 (parent)
chain: VAKRKCPDHGLDLSTYCQEDRQLICVLCPVIGAHQGHQLSTLDEA

± gives the uncertainty stated by the source.

In this data set the parent is B1. Put plainly: abundance fitness (aPCA) (normalised: wild type 0, dead -1); higher = more abundant; growth selection in yeast, the domain comes from the species named. The following applies: Homo sapiens.
Turning to VAKRKCPDHGLDLSTYCQEDRQLIFVLCPVIGAHQGHQLSTLDEA, the abundance fitness was -0.926 ± 0.12.

Regarding VAKRKCPDHGLDLSTYCQEDRQLIEVLCPVIGAHQGHQLSTLDEA, the abundance fitness is -0.717 ± 0.041.

VAKRKCPDHGLDLSTYCQEDRQLIDVLCPVIGAHQGHQLSTLDEA: the abundance fitness was -0.662 ± 0.072.

Take VAKRKCPDHGLDLSTYCQEDWQLICVLCPVIGAHQGHQLSTLDEA: the abundance fitness is -0.24 ± 0.03.

Consider VAKRKCPDHGLDLSTYCQEDYQLICVLCPVIGAHQGHQLSTLDEA, for which the abundance fitness worked out at 0.001 ± 0.095.

For the variant VAKRKCPDHGLDLSTYCQEDVQLICVLCPVIGAHQGHQLSTLDEA, the abundance fitness was -0.205 ± 0.029.

In the case of VAKRKCPDHGLDLSTYCQEDSQLICVLCPVIGAHQGHQLSTLDEA, the abundance fitness was found to be 0.068 ± 0.03.

For the variant VAKRKCPDHGLDLSTYCQEDNQLICVLCPVIGAHQGHQLSTLDEA, the abundance fitness was 0.047 ± 0.039.

As for VAKRKCPDHGLDLSTYCQEDTQLICVLCPVIGAHQGHQLSTLDEA, the abundance fitness is -0.037 ± 0.033.

On to VAKRKCPDHGLDLSTYCQEDPQLICVLCPVIGAHQGHQLSTLDEA, for which the abundance fitness is -0.691 ± 0.046.

As for VAKRKCPDHGLDLSTYCQEDRQLVCVLCPVIGAHQGHQLSTLDEA, the abundance fitness is -0.051 ± 0.026.

As for VAKRKCPDHGLDLSTYCQEDRQLFCVLCPVIGAHQGHQLSTLDEA, the abundance fitness was -0.173 ± 0.047.

With VAKRKCPDHGLDLSTYCQEDRQLTCVLCPVIGAHQGHQLSTLDEA, the abundance fitness is -0.052 ± 0.028.

On to VAKRKCPDHGLDLSTYCQEDRQLKCVLCPVIGAHQGHQLSTLDEA, for which the abundance fitness is -0.138 ± 0.037.

Consider VAKRKCPDHGLDLSTYCQEDRQLDCVLCPVIGAHQGHQLSTLDEA, for which the abundance fitness was -0.427 ± 0.039.

On to VAKRKCPDHGLDLSTYCQEDRQLMCVLCPVIGAHQGHQLSTLDEA, for which the abundance fitness is -0.041 ± 0.031.

As for VAKRKCPDHGLDLSTYCQEDRQLRCVLCPVIGAHQGHQLSTLDEA, the abundance fitness is -0.171 ± 0.026.

Turning to VAKRKCPDHGLDLSTYCQEDRQLHCVLCPVIGAHQGHQLSTLDEA, the abundance fitness was -0.312 ± 0.048.

Turning to VAKRKCPDHGLDLSTYCQEDRQLACVLCPVIGAHQGHQLSTLDEA, the abundance fitness was -0.121 ± 0.028.

Take VAKRKCPDHGLDLSTYCQEDRQLCCVLCPVIGAHQGHQLSTLDEA: the abundance fitness is -0.043 ± 0.033.

Turning to VAKRKCPDHGLDLSTYCQEDRQLYCVLCPVIGAHQGHQLSTLDEA, the abundance fitness is -0.262 ± 0.049.

With VAKRKCPDHGLDLSTYCQEDRQLLCVLCPVIGAHQGHQLSTLDEA, the abundance fitness is -0.068 ± 0.029.

As for VAKRKCPDHGLDLSTYCQEDRQLNCVLCPVIGAHQGHQLSTLDEA, the abundance fitness is -0.407 ± 0.048.

For VAKRKCPDHGLDLSTYCQEDRQLECVLCPVIGAHQGHQLSTLDEA, the abundance fitness is -0.457 ± 0.03.

Regarding VAKRKCPDHGLDLSTYCQEDRQLSCVLCPVIGAHQGHQLSTLDEA, the abundance fitness is -0.31 ± 0.032.

Consider VAKRKCPDHGLDLSTYCQEDRQNICVLCPVIGAHQGHQLSTLDEA, for which the abundance fitness was -0.09 ± 0.056.

In the case of VAKRKCPDHGLDLSTYCQEDRQIICVLCPVIGAHQGHQLSTLDEA, the abundance fitness was -0.161 ± 0.075.

With VAKRKCPDHGLDLSTYCQEDRQWICVLCPVIGAHQGHQLSTLDEA, the abundance fitness came to 0.001 ± 0.027.

Regarding VAKRKCPDHGLDLSTYCQEDRQEICVLCPVIGAHQGHQLSTLDEA, the abundance fitness is 0.066 ± 0.03.

For VAKRKCPDHGLDLSTYCQEDRQCICVLCPVIGAHQGHQLSTLDEA, the abundance fitness was -0.116 ± 0.035.

Regarding VAKRKCPDHGLDLSTYCQEDRQKICVLCPVIGAHQGHQLSTLDEA, the abundance fitness was -0.041 ± 0.04.

With VAKRKCPDHGLDLSTYCQEDRQQICVLCPVIGAHQGHQLSTLDEA, the abundance fitness is 0.058 ± 0.031.

Consider VAKRKCPDHGLDLSTYCQEDRQTICVLCPVIGAHQGHQLSTLDEA, for which the abundance fitness is -0.001 ± 0.032.

VAKRKCPDHGLDLSTYCQEDRQFICVLCPVIGAHQGHQLSTLDEA: the abundance fitness is -0.163 ± 0.049.

On to VAKRKCPDHGLDLSTYCQEDRQMICVLCPVIGAHQGHQLSTLDEA, for which the abundance fitness was -0.004 ± 0.036.

For VAKRKCPDHGLDLSTYCQEDRQDICVLCPVIGAHQGHQLSTLDEA, the abundance fitness worked out at 0.081 ± 0.039.

In the case of VAKRKCPDHGLDLSTYCQEDRQSICVLCPVIGAHQGHQLSTLDEA, the abundance fitness turned out to be 0.014 ± 0.028.

For VAKRKCPDHGLDLSTYCQEDRQVICVLCPVIGAHQGHQLSTLDEA, the abundance fitness is -0.048 ± 0.027.

Consider VAKRKCPDHGLDLSTYCQEDRQGICVLCPVIGAHQGHQLSTLDEA, for which the abundance fitness is -0.001 ± 0.025.

Take VAKRKCPDHGLDLSTYCQEDRCLICVLCPVIGAHQGHQLSTLDEA: the abundance fitness stood at 0.042 ± 0.048.

On to VAKRKCPDHGLDLSTYCQEDRSLICVLCPVIGAHQGHQLSTLDEA, for which the abundance fitness stood at 0.007 ± 0.033.

Turning to VAKRKCPDHGLDLSTYCQEDRRLICVLCPVIGAHQGHQLSTLDEA, the abundance fitness was -0.001 ± 0.026.

As for VAKRKCPDHGLDLSTYCQEDRGLICVLCPVIGAHQGHQLSTLDEA, the abundance fitness was -0.109 ± 0.025.

As for VAKRKCPDHGLDLSTYCQEDRHLICVLCPVIGAHQGHQLSTLDEA, the abundance fitness is -0.044 ± 0.04.

VAKRKCPDHGLDLSTYCQEDRPLICVLCPVIGAHQGHQLSTLDEA: the abundance fitness is -0.726 ± 0.096.

For VAKRKCPDHGLDLSTYCQEDRMLICVLCPVIGAHQGHQLSTLDEA, the abundance fitness is 0.004 ± 0.035.

Turning to VAKRKCPDHGLDLSTYCQEDRDLICVLCPVIGAHQGHQLSTLDEA, the abundance fitness was -0.014 ± 0.036.

Regarding VAKRKCPDHGLDLSTYCQEDRILICVLCPVIGAHQGHQLSTLDEA, the abundance fitness is -0.094 ± 0.07.

Take VAKRKCPDHGLDLSTYCQEDRVLICVLCPVIGAHQGHQLSTLDEA: the abundance fitness is -0.039 ± 0.027.

With VAKRKCPDHGLDLSTYCQEDRYLICVLCPVIGAHQGHQLSTLDEA, the abundance fitness is 0.02 ± 0.079.

For VAKRKCPDHGLDLSTYCQEDRALICVLCPVIGAHQGHQLSTLDEA, the abundance fitness is -0.019 ± 0.027.

For VAKRKCPDHGLDLSTYCQEDRELICVLCPVIGAHQGHQLSTLDEA, the abundance fitness is 0.072 ± 0.029.

Take VAKRKCPDHGLDLSTYCQEDRTLICVLCPVIGAHQGHQLSTLDEA: the abundance fitness was 0.06 ± 0.037.

Turning to VAKRKCPDHGLDLSTYCQEDRFLICVLCPVIGAHQGHQLSTLDEA, the abundance fitness is -0.281 ± 0.048.

With VAKRKCPDHGLDLSTYCQEDRWLICVLCPVIGAHQGHQLSTLDEA, the abundance fitness was -0.552 ± 0.032.

In the case of VAKRKCPDHGLDLSTYCQEDRLLICVLCPVIGAHQGHQLSTLDEA, the abundance fitness is -0.074 ± 0.03.

Consider VAKRKCPDHGLDLSTYCQEDRKLICVLCPVIGAHQGHQLSTLDEA, for which the abundance fitness was found to be 0.027 ± 0.037.
